Data published in article PMC10745820, “Bode Phase Angle Signaling of a TB Disease Biomarker”.

Target: interferon gamma (IFN-γ) (UniProt P01579 24-161)
Assay: electrochemical impedance aptasensor (Bode phase angle); spiked pleural fluid, IFN-γ 0.2-2.2 pg/mL; linear 0.2-1.2 pg/mL; LOD 0.09 (abstract) or 0.11 pg/mL; no Kd; aptamer-free control sensor only slight change; Aptamer folded in 0.1 M phosphate buffer, 10 mM KCl, 2 mM MgCl2 (90 °C 10 min, 4 °C 5 min, RT 10 min); IFN-γ in spiked pleural fluid; EIS in phosphate buffer/PBS pH 7.4; binding temperature not stated
Conditions: chain copies: 2

Sequence of interferon gamma (IFN-γ) (P01579 24-161): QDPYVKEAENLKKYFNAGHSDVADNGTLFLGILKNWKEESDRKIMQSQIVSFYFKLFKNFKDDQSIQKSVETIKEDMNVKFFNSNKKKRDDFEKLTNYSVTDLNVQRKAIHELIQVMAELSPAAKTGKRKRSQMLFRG

Question: Does CGGCGAAGGCACGTGTGGGGTGGTCGCGT (ssDNA, 5' thiol (5ThioMC6-D, printed as 5thiolMCS-D)) [29-mer anti-IFN-γ aptamer] bind?
Answer: Result: binds
